Molecular target: C4 single-chain Fv antibody (C4 scFv) (human (from a human scFv phage-display …))
Assay: ITC

Row | Binder | Ka
1 | MATLEKLMKAFESLKSF [HTT(1-17) peptide, the 17 N-terminal residues of huntingtin] | 1.8e+07 M⁻¹
2 | MATLEKLMKAFESLKS [truncated peptide HTT(1-16)] | 9.08e+06 M⁻¹
3 | MATLEKLMKAFESLK [truncated peptide HTT(1-15)] | 6.87e+06 M⁻¹
4 | MATLEKLMKAFESL [truncated peptide HTT(1-14)] | 3.09e+06 M⁻¹
